What all share (test): SEC; FPLC of native protein with His-tag cleaved; HiLoad-16/60 Superdex200, 1 x PBS, 4°C, 1 ml/min; column calibrated with catalase, aldolase, chymotrypsinogen A and ribonuclease A
Test [1] concerns the target ratiometric pHluorin (Aequorea victoria).
For test [2], the target named is GFP from the orange seapen Ptilosarcus gurneyi (Pt-GFP) (Ptilosarcus gurneyi).
Test [3] has as its target ecliptic pHluorin (Aequorea victoria).

ratiometric pHluorin returned a stoichiometry N in test [1] of 2.

Consider “GFP from the orange seapen Ptilosarcus gurneyi (Pt-GFP) (natural protein)”, for which the stoichiometry N in test [2] is 4. Consider ecliptic pHluorin, for which the stoichiometry N in test [3] turned out to be 2.

(Values after publication PMC1475855.)
